The target in assay [1] is T1, SPOP ΔBACK^28–337 (UniProt O43791 28-337). The experiment in a line: fluorescence polarisation. (Polarisation of emitted light reports the rotation of a fluorescent probe.)
Assay [2] concerns the target T1, SPOP ΔBACK^28–337. The assay is described as follows: fluorescence polarisation. The source holds these as a separate data set.

Like-named read-outs stand apart in the source and are kept apart here.

T1 sequence (O43791 28-337, stated change not applied): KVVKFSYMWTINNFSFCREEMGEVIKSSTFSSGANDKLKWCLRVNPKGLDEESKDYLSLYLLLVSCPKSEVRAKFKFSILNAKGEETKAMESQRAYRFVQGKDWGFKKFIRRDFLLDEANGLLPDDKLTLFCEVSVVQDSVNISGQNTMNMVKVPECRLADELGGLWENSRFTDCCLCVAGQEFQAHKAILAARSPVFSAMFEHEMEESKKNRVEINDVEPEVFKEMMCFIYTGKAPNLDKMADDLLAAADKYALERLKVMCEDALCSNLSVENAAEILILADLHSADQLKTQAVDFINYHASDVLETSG

B1: rhodamine-labeled His-cDAXX^495–740 (domain or fragment, UniProt Q9UER7 495-740, looked up)
chain: SPMSSLQISNEKNLEPGKQISRSSGEQQNKGRIVSPSLLSEEPLAPSSIDAESNGEQPEELTLEEESPVSQLFELEIEALPLDTPSSVETDISSSRKQSEEPFTTVLENGAGMVSSTSFNGGVSPHNWGDSGPPCKKSRKEKKQTGSGPLGNSYVERQRSVHEKNGKKICTLPSPPSPLASLAPVADSSTRVDSPSHGLVTSSLCIPSPARLSQTPHSQPPRPGTCKTSVATQCDPEEIIVLSDSD
modifications: labeled with Rhodamine Red C2 maleimide
On to B1, for which the values for the Kd with SPOP ΔBACK^28–337 [1] and in the assay with SPOP ΔBACK^28–337 [2] were 10 µM and 17 µM, respectively.

In general, Kd refers to a measure of binding affinity in units of concentration. Read a low Kd as higher affinity.

The values are drawn from article PMC7531186 (Journal of the American Chemical Society, 2020).
